# Test results reported in article PMC5296908.
# Target: ADAMTS17-PCD (human)
# Assay: SPR; ADAMTS17-PCD (3300 RU) or ADAMTS17-AD (2530 RU) amine-coupled to a CM5 chip, BIAcore 3000; analytes flowed at 20 μl/min; 25 °C; TBS with 2 mM CaCl2 and 0.005% SP20; 1:1 stoichiometry assumed
substance,measurement,value
ADAMTS17-PCD (domain or fragment),Kd,1.4 µM
